Molecular target: FIP200 N-terminal domain (1-640), untagged, of the ULK1C core (human, UniProt Q8TDY2 1-640)
Assay: cryo-EM structure; ULK1C (2:1:1) core, SEC peak in 25 mM HEPES pH 7.5, 150 mM NaCl, 1 mM MgCl2, 1 mM TCEP; graphene grids, 300 kV Titan Krios
Settings: both partners purified

FIP200 N-terminal domain (1-640), untagged, of the ULK1C core, sequence (Q8TDY2 1-640): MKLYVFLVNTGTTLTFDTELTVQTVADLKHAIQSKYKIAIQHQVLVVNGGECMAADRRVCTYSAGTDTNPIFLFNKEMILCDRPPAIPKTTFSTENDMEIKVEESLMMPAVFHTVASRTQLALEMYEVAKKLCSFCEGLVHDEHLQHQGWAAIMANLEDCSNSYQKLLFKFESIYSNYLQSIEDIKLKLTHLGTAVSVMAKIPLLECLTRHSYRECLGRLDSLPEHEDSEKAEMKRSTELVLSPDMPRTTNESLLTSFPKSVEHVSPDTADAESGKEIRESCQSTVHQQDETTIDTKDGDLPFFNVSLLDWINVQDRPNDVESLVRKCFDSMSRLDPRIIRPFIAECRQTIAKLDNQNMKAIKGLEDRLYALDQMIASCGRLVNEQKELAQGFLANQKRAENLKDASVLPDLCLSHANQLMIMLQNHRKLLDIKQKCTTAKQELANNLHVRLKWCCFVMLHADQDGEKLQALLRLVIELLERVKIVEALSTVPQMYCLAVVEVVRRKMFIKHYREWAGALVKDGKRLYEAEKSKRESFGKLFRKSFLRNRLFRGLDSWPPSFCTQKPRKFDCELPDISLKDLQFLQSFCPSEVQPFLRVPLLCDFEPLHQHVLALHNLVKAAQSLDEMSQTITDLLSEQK

B1: ATG13 (363-517), the ATG13 part of the ATG13-ULK1 fusion chain (domain or fragment, human, UniProt O75143 363-517, looked up)
chain: HDVLETIFVRKVGAFVNKPINQVTLTSLDIPFAMFAPKNLELEDTDPMVNPPDSPETESPLQGSLHSDGSSGGSSGNTHDDFVMIDFKPAFSKDDILPMDLGTFYREFQNPPQLSSLSIDIGAQSMAEDLDSLPEKLAVHEKNVREFDAFVETLQ
  binding result: binds
